Measured values reported in the RNAGym collection of RNA variant scans (doi:10.1073/pnas.2313332121).

B1: TPR t1 (parent)
chain: GACCAAUCUGCCCUCAGAGCUCGAGAACAUCUUCGGAUGCAGAGGAGGCAGGCUUCGGUGGCGCGAUAGCGCCAACGUCCUCAACCUCCAAUGCAUCCCACCACAUGAUGAUGCCUGAAGAGCCUUGGUUUUUUG

Variants of: B1
Test: polymerase ribozyme fitness, log enrichment relative to wild type (log ratio); higher = more active; in vitro selection for triplet polymerase activity
Method in brief: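 Mutant libraries were PCR-built and transcribed for each subunit of a heterodimeric triplet polymerase ribozyme and selected for one round in triplicate at −7 °C, frozen, before gel excision of extended constructs and streptavidin-bead capture. Input and output libraries were Illumina-sequenced, keeping genotypes with ≥10 input reads and ≥1 read per output. Fitness is a logarithmic ratio of genotype to wild-type enrichment, in base 2, using inverse-variance-weighted replicate averages.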

Row | Variant | polymerase ribozyme fitness (log ratio)
1 | A18G C89A C114G U133A | -6.53
2 | A18G C53A A100C A103G C114A | -5.14
3 | A18G A74C C79U | -4.7
4 | A18U G45U U87C A90G | -2.54
5 | A18G C53A C72U C85G | -4.61
6 | A18C G19A C40U C49U A50U C89U C124U | -5.69
7 | A18U A43U A83G C89G G110U U125A | -5.8
8 | A18C G128C | -5.12
9 | A18U G61C U112A G122U | -6.15
10 | G17U C49U | -2.42
11 | G19A C56U | -2.34
12 | G19U A43U G47U U112A G120A | -2.08
13 | C20A G63A A74C U96A | -5.16
14 | G19A C62U G93U | -4.23
15 | A18U C70A G113A G122A | -4.58
16 | G19U A119G G128A | -3.71
17 | G17U G39U C88U A91C G117U | -3.62
18 | C20A U87G A100G C102A A119G | -5.22
19 | A18U A27G C53A G71C C85G | -8.07
20 | C20A G93A | -3.32
21 | G19C C40U G93U C114G G122A | -0.927

Row | Variant | polymerase ribozyme fitness (log ratio)
22 | G17U C73G C124G G128C | -2.67
23 | G19U G39U G93A U106C G120U | -5.8
24 | G19C G71U C114A G128A | -2.59
25 | A18C C20U G110C | -6.35
26 | A18C C20U C53U | -1.72
27 | A18U A37C C101A | -4.02
28 | A18C C34A C99A C123A U126A | -5.25
29 | G19A G71A | -3.99
30 | A18U G42U G63C A66G C123U | -4.29
31 | A18G C49A C64U C79U G120C G128U | -3.3
32 | C20A C28G C94U A111G | -7.69
33 | C20A C82A U87G | -1.92
34 | G19A G77U | -2.96
35 | A18C U55C C62U | -3.73
36 | A18G C64U G69C U78G G113C | -3.05
37 | A18G U131A | -2.69
38 | C20A C49A G63U | -4.62
39 | A18U C82A U92A | -4.27
40 | A18G G93A | -3.21
41 | A18U G71C C104A | -6.56
42 | G19C G48U | -2.5

Row | Variant | polymerase ribozyme fitness (log ratio)
43 | C20A C40U U132A | -2.39
44 | A18G A24G C34U G61A A111U G128U G135U | -6.04
45 | C20A A27U A43U | -5.37
46 | G19U C64U | -2.87
47 | G19A G48U C49U G69U G93U | -4.49
48 | A18G A41C A43G G57U | -4.59
49 | G17U C40G A90G A95U C115G | -3.65
50 | A18U A27U C98A G110A | -7.19
51 | G19C G45A G60A U106A | -4.35
52 | G17U U130A | -3.3
53 | G17U U130C | -1.79
54 | G19U A50C C98U G110A A121G | -6.95
55 | G17U U112C | -0.756
56 | A18G C124A | -0.403
57 | A18G A24G U55A | -5.14
58 | C20A A27C C62U | -4.63
59 | G19A G71C G127C | -4.23
60 | A18C G52A | -2.7
61 | C20A G120A | -1.89
62 | C20A C53U | -2.46
63 | G19A A43U C49U U59A C124U | -1.73

Row | Variant | polymerase ribozyme fitness (log ratio)
64 | A18C C64U U130C | -2.08
65 | C20G A37G A118U | -3.12
66 | G17U U21A U112C C123A | -3.07
67 | C20A A46C U78C A111C C114A | -3.99
68 | A18C C22U C73A A121U | -5.5
69 | G19U C40U | -3
70 | G17U A43U G48U A74G | -3.04
71 | C20A C79A | -3.62
72 | A18U C94U | -3.18
73 | G19C G61C C88A | -4.49
74 | G19U A37U | -3.17
75 | G19U G45C A91C A111C | -3.35
76 | A18G G36A U116C A118G | -2.17
77 | C20A G35U | -5.42
78 | G19A G61A U132C | -2.94
79 | A18G G19U C73A C79U | -1.75
80 | G19U U96A C114A | 0.905
81 | A18C C53G G60U U116G | -2.87
82 | C20A C28A G36A A90C G110U | -4.25
83 | C20A C104A | -3.99
